Assay results as given in US20240100176A1 (Eli Lilly, published 2024).

T1: hexahistidine-tagged cynomolgus monkey IL-4Rα extracellular domain (cynomolgus monkey, UniProt P24394 26-231 (human entry))
T1 construct: also called cynomolgus monkey IL-4Rα ECD; not shown: hexahistidine tag
T1 chain: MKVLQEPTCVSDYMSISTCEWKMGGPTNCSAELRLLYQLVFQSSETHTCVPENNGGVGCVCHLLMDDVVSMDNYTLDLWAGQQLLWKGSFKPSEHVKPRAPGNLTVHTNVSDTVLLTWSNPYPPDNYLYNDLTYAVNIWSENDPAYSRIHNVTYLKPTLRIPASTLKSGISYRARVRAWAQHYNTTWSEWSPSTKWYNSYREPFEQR

T2: hexahistidine-tagged human IL-4Rα extracellular domain (human, UniProt P24394 26-232)
T2 construct: In the MSD assay the plate coat is the His-tagged ECD; also called human IL-4Rα ECD; Wild type receptor; not shown: hexahistidine tag
T2 sequence: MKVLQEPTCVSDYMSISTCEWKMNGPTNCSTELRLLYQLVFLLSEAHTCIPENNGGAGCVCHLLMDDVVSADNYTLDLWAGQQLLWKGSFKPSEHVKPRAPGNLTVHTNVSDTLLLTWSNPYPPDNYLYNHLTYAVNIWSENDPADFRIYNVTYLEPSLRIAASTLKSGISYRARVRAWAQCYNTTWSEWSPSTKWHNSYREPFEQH

T3: human IL-4Rα on cells (human PBMC B cells and CD4+ T cells, Daudi cells, HEK-Blue IL-4/IL-13 cells, myeloid … (human, UniProt P24394 26-825))
T3 sequence: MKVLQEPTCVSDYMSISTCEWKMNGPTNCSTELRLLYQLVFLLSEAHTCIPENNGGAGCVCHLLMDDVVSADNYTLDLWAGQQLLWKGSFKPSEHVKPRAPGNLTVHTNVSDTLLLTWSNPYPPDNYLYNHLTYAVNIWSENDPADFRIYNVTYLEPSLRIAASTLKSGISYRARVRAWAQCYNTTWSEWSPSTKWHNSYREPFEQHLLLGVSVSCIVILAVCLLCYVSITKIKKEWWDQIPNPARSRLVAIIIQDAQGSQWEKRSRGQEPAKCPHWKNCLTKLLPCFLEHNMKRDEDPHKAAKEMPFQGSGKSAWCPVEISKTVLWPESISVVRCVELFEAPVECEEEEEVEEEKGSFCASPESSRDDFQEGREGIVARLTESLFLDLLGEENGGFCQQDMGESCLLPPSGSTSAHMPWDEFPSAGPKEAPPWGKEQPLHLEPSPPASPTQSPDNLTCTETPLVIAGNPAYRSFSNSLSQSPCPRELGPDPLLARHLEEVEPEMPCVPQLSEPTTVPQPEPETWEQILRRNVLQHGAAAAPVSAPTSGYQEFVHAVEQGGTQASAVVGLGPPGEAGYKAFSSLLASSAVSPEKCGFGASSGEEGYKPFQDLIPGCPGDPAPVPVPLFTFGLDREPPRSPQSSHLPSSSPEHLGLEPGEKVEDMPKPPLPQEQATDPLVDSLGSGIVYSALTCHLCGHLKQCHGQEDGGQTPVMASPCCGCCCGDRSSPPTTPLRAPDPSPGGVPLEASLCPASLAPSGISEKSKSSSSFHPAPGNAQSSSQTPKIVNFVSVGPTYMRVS


Tests used:
[1] = target: T1, hexahistidine-tagged cynomolgus monkey …; assay: competition MSD ELISA (solution equilibrium, 37 °C), apparent KD, single experiment
Procedure: (§1) Example 3a. […] A 96-well multi-array plate (Meso Scale Diagnostics, Cat. #L15XA-3) was coated at 4° C. overnight with 0.5 μg/mL hexahistidine-tagged human or cynomolgus monkey IL-4Rα ECD in phosphate buffered saline (PBS). Following coating, plates were washed 10 times with 200 μL PBST (PBS with 0.05% Tween® 20) and blocked with 300 μL/well of PBS casein blocking buffer (Pierce, Cat. #37528) at 37° C. for 1 hour. Plates were then washed 10 times as above, and 50 μL of the preincubated antibody:IL-4Rα dilution series was transferred to the wells and incubated at 37° C. with 300 rpm shaking for […]. Plates were washed 10 times with PBST, 50 μL of 1 μg/mL anti-human antibody sulfo-tag 20 (Meso Scale Diagnostics, Cat. #R32AJ-1) was added to the plates for the assay of Table 7a, and anti-Human NHP Kappa Light chain SULFO-TAG 20 (Meso Scale Diagnostics, Cat #D20TF-6) was added to the plates for the assay of Table 7b, and plates were incubated at 37° C. with 300 rpm shaking for 30 minutes. Plates were washed 10 times with PBST, 150 μL/well of 1× Read Buffer T was added to the wells and analyzed on a SECTOR® Imager 6000 (Meso Scale Diagnostics) 15 min after buffer addition. The apparent KD is determined by fitting a sigmoidal curve to the electrochemiluminescence (ECL) response vs. log (soluble IL-4Rα concentration) using GraphPad Prism 9. Data is graphed with normalized ECL values.

[2] = target: T2, hexahistidine-tagged human IL-4Rα …; assay: as above
Procedure: as §1

[3] = target: T3, human IL-4Rα on cells (human PBMC B …); assay: flow cytometry on human PBMCs, B cells, Alexa Fluor 647 labelled antibody
Procedure: Example 3b. Binding to B cells and T cells: Binding of the exemplified anti-human IL-4Rα antibodies to B cells and T cells was tested in a Fluorescence Activated Cell Sorting (FACS) assay. […] Freshly isolated cells PBMCs were resuspended at 2×10⁶ cells/mL and allowed to rest for 15 minutes at room temperature, then plated at 100 μL/well into a round bottom 96-well plate (COSTAR®) and washed with FACS buffer (PBS containing 2% fetal bovine serum from Corning®). Exemplified anti-human IL-4Rα antibodies and the respective control IgG antibodies conjugated to Alexa Fluor® 647 according to manufacturer's protocol (Thermo Fisher Scientific) were added to the wells at 66.67 nM and diluted 4-fold in duplicate. Equivalent volume of 2× antibody cocktail containing: Human TruStain FcX™. FITC anti-human CD3 Antibody, Alexa Fluor® 700 anti-human CD4 Antibody (all from Biolegend®) and CD20 Monoclonal Antibody (2H7), PerCP-Cyanine5.5 (Thermo Fisher Scientific) was then added to the wells. Cells were incubated at 4° C. for 30 minutes, washed twice with FACS buffer and resuspended in a final volume of 100 μL FACS buffer. Viability dye, Sytox™ blue (Thermo Fisher Scientific), was added and the samples were analyzed via a flow cytometer (LSRFortessa™ X-20; BD BIOSCIENCES). Data analysis was performed using FlowJo software and statistical analysis was performed using GraphPad Prism 9. […]

[4] = target: T3, human IL-4Rα on cells (human PBMC B …); assay: cell-based or functional assay
[5] = target: T4, hexahistidine tagged human IL-4Rα ECD containing a C182L mutation (human, UniProt P24394 26-232); assay: X-ray co-crystal structure
T4 construct: Stated for the Ab9 Fab crystal; also called IL-4Rα ECD (crystallisation construct); not shown: hexahistidine tag

Binder | IL-4 IC50 (nM): inhibition of IL-4 induced SEAP activity in HEK-Blue IL-4R and IL-13R expressing cells [4] | IL-13 IC50 (nM): inhibition of IL-13 induced SEAP activity in HEK-Blue IL-4R and IL-13R expressing cells [4] | binding result [5] | further results
anti-human IL-4Rα antibody Ab4 (antibody, human IgG4 S228P, kappa) heavy: not shown light: DIQMTQSPSAMSASVGDRVTITCRASQDISNYLAWFQQKPGKVPTRLIYAASSLQSGVPSRFSGSGSGTEFTLTISSLQPEDFATYYCLQWSSYPRTFGQGTKVEIKRTVAAPSVFIFPPSDEQLKSGTASVVCLLNNFYPREAKVQWKVDNALQSGNSQESVTEQDSKDSTYSLSSTLTLSKADYEKHKVYACEVTHQGLSSPVTKSFNRGEC | – | – | – | Kd [1]: 0.0315 nM; Kd [2]: 0.0246 nM
effector null anti-human IL-4Rα antibody Ab8 (antibody, human IgG1, kappa, L234A L235A, Effector null backbone) heavy: QVQLVESGGGLVQPGGSLRLSCVASGFTFSHSSMNWVRQAPGKGLEWVSYISRATGAVYYADSVKGRFTISRDNAKNSLYLQMNSLRDEDTAVYYCAREPVFDYWGQGTLVTVSSASTKGPCVFPLAPSSKSTSGGTAALGCLVKDYFPEPVTVSWNSGALTSGVHTFPAVLQSSGLYSLSSVVTVPSSSLGTQTYICNVNHKPSNTKVDKRVEPKSCDKTHTCPPCPAPEAAGGPSVFLFPPKPKDTLMISRTPEVTCVVVDVSHEDPEVKFNWYVDGVEVHNAKTKPREEQYNSTYRVVSVLTVLHQDWLNGKEYKCKVSNKALAAPIEKTISKAKGQPREPQVYTLPPSREEMTKNQVSLTCLVKGFYPSDICVEWESNGQPENNYKTTPPVLDSDGSFFLYSKLTVDKSRWQQGNVFSCSVMHEALHNHYTQKSLSLSPGK light: DIQMTQSPSAMSASVGDRVTITCRASQDISNYLAWFQQKPGKVPTRLIYAASSLQSGVPSRFSGSGSGTEFTLTISSLQPEDFATYYCLQWSSYPRTFGQGTKVEIKRTVAAPSVFIFPPSDEQLKSGTASVVCLLNNFYPREAKVQWKVDNALQSGNSQESVTEQDSKDSTYSLSSTLTLSKADYEKHKVYACEVTHQGLSSPVTKSFNRGEC | – | – | – | EC50 [3]: 1.07 nM
anti-human IL-4Rα antibody Ab9 (antibody, human IgG4 S228P, kappa, V domains shown) VH: QVQLVESGGGLVQPGGSLRLSCAASGFTFSHSSMNWVRQAPGKGLEWVSYISRATGAVYYADSVKGRFTISRDNAKNSLYLQMNSLRDEDTAVYYCAREPVFDYWGQGTLVTVSS VL: DIQMTQSPSAMSASVGDRVTITCRASQGISNYLAWFQQKPGKVPTRLIYAASSLQSGVPSRFSGSGSGTEFTLTISSLQPEDFATYYCLQWSSYPRTFGQGTKVEIKR | 0.03 nM | 0.24 nM | – | –
Ab9 Fab (hexahistidine tagged IgG1 heavy chain truncated after CH1, Crystal Kappa light chain) (Fab, V domains shown, Construct for co-crystallisation; also called Fab portion of Ab9; Ab9 variant) VH: QVQLVESGGGLVQPGGSLRLSCAASGFTFSHSSMNWVRQAPGKGLEWVSYISRATGAVYYADSVKGRFTISRDNAKNSLYLQMNSLRDEDTAVYYCAREPVFDYWGQGTLVTVSS VL: DIQMTQSPSAMSASVGDRVTITCRASQGISNYLAWFQQKPGKVPTRLIYAASSLQSGVPSRFSGSGSGTEFTLTISSLQPEDFATYYCLQWSSYPRTFGQGTKVEIK | – | – | binds | –

Second part, led by results:

IL-4 IC50 (nM): inhibition of IL-4 induced SEAP activity in HEK-Blue IL-4R and IL-13R expressing cells [4] | IL-13 IC50 (nM): inhibition of IL-13 induced SEAP activity in HEK-Blue IL-4R and IL-13R expressing cells [4] | binding result [5] | Binder | further results
3.45 nM | > 35 nM | – | anti-human IL-4Rα antibody Ab10 (antibody, human IgG4 S228P, kappa, F234A L235A, V domains shown) VH: QVQLVESGGGLVQPGGSLRLSCAASGFTFSISSMNWVRQAPGKGLEWVSYISRATGAIYYADSVKGRFTISRNNAKNSLYLQMNSLRDEDTAVYYCAREPVFDYWGQGTLVTVSS VL: DIQMTQSPSAMSASVGDRVTITCRASQGISNYLAWFQQKPGKVPTRLIYAASSLQSGVPSRFSGSGSGTEFTLTISSLQPEDFATYYCLQHNSYPRTFGQGTKVEIKR | –
– | – | binds | Ab1 Fab (Crystal Kappa design) (Fab, V domains shown, Construct for co-crystallisation; also called Fab of the Ab1; anti-human IL-4Rα Ab1 Fab) VH: QVQLVESGGGLVQPGGSLRLSCVASGFTFSHSSMNWVRQAPGKGLEWVSYISRATGAVYYADSVKGRFTISRDNAKNSLYLQMNSLRDEDTAVYYCAREPVFDYWGQGTLVTVSS VL: DIQMTQSPSAMSASVGDRVTITCRASQDISNYLAWFQQKPGKVPTRLIYAASSLQSGVPSRFSGSGSGTEFTLTISSLQPEDFATYYCLQWSSYPRTFGQGTKVEIK | –
